B1: mRNA-splicing (parent)
chain: AGUUGCUGCUGGGAGCUCCAGCACAGUGAAAUGGACAGAAGGGCAGAGCAA

Variants of: B1
Assay: exon inclusion enrichment index; higher = more inclusion; WT1 exon 5 minigene, HEK293

Variant	exon inclusion enrichment index
G5U G8U C9U C19U A20U	0.0205
G5U G8U C9U C22A	0.117
G5U G8U C9U C22A A23C	0.435
G5U G8U C9U C22A A23G	0.141
G5U G8U C9U C22A A23U	0.0576
G5U G8U C9U C22G	0.183
G5U G8U C9U C22G A23C	0.0377
G5U G8U C9U C22G A23G	0.0211
G5U G8U C9U C22G A23U	0.0132
G5U G8U C9U C22U	0.095
G5U G8U C9U C22U A23C	0.0522
G5U G8U C9U C22U A23G	0.109
G5U G8U C9U C22U A23U	0.0443
G5U G8U C9U C24A	0.116
G5U G8U C9U C24A A25C	0.849
G5U G8U C9U C24A A25G	0.175
G5U G8U C9U C24A A25U	0.149
G5U G8U C9U C24G	0.199
G5U G8U C9U C24G A25C	0.663
G5U G8U C9U C24G A25G	0.0358
G5U G8U C9U C24G A25U	0.208

Variant	exon inclusion enrichment index
G5U G8U C9U C24U	0.0331
G5U G8U C9U C24U A25C	0.987
G5U G8U C9U C24U A25G	0.363
G5U G8U C9U C24U A25U	0.127
G5U G8U C9U C36A	0.0987
G5U G8U C9U C36A A37C	0.21
G5U G8U C9U C36A A37G	0.0549
G5U G8U C9U C36A A37U	0.0263
G5U G8U C9U C36G	0.0708
G5U G8U C9U C36G A37C	0.0336
G5U G8U C9U C36G A37G	0.0302
G5U G8U C9U C36G A37U	0.0469
G5U G8U C9U C36U	0.0293
G5U G8U C9U C36U A37C	0.0658
G5U G8U C9U C36U A37G	0.114
G5U G8U C9U C36U A37U	0.081
G5U G8U C9U C44A	0.454
G5U G8U C9U C44A A45C	0.576
G5U G8U C9U C44A A45G	0.326
G5U G8U C9U C44A A45U	0.41
G5U G8U C9U C44G	0.278

Variant	exon inclusion enrichment index
G5U G8U C9U C44G A45C	0.346
G5U G8U C9U C44G A45G	0.0217
G5U G8U C9U C44G A45U	0.0543
G5U G8U C9U C44U	0.0292
G5U G8U C9U C44U A45C	0.215
G5U G8U C9U C44U A45G	0.043
G5U G8U C9U C44U A45U	0.0921
G5U G8U C9U G11A	0.0224
G5U G8U C9U G11A G12A	0.00894
G5U G8U C9U G11A G12C	0.0306
G5U G8U C9U G11A G12U	0.00501
G5U G8U C9U G11C	0.297
G5U G8U C9U G11C G12A	0.0135
G5U G8U C9U G11C G12C	0.0331
G5U G8U C9U G11C G12U	0.0163
G5U G8U C9U G11U	0.144
G5U G8U C9U G11U G12A	0.00214
G5U G8U C9U G11U G12C	0.0157
G5U G8U C9U G11U G12U	0.00578
G5U G8U C9U G12A	0.0372
G5U G8U C9U G12A G13A	0.0133

Variant	exon inclusion enrichment index
G5U G8U C9U G12A G13C	0.0118
G5U G8U C9U G12A G13U	0.000463
G5U G8U C9U G12C	0.0449
G5U G8U C9U G12C G13A	0.0253
G5U G8U C9U G12C G13C	0.00507
G5U G8U C9U G12C G13U	0.0014
G5U G8U C9U G12U	0.0166
G5U G8U C9U G12U G13A	0.000421
G5U G8U C9U G12U G13C	0.00926
G5U G8U C9U G12U G13U	0.000363
G5U G8U C9U G13A	0.0771
G5U G8U C9U G13A A14C	0.61
G5U G8U C9U G13A A14G	0.152
G5U G8U C9U G13A A14U	0.349
G5U G8U C9U G13C	0.0102
G5U G8U C9U G13C A14C	0.063
G5U G8U C9U G13C A14G	0.2
G5U G8U C9U G13C A14U	0.1
G5U G8U C9U G13U	0.00294
G5U G8U C9U G13U A14C	0.0727
G5U G8U C9U G13U A14G	0.0118
